Reference: FireProtDB (doi:10.1021/bi00118a013)

Conditions: Aspergillus oryzae (strain ATCC 42149 / RIB 40), pH 7, Fluorescence, MOPS 30 mM, reversible: yes, whole UniProt chain shown

B1: Guanyl-specific ribonuclease T1 wild type, P00651 (protein)
chain: MMYSKLLTLTTLLLPTALALPSLVERACDYTCGSNCYSSSDVSTAQAAGYQLHEDGETVGSNSYPHKYNNYEGFDFSVSSPYYEWPILSSGDVYSGGSPGADRVVFNENNQLAGVITHTGASGNNFVECT
For B1, the denaturant m value (25 °C, Urea) was 1.21 kcal/mol/M, the “denaturant midpoint (higher = more stable)” value (25 °C, Urea) was 5.3 M and the Tm (Thermal) was 50.9 °C. The “unfolding enthalpy (van 't Hoff)” value (Thermal) was 110 kcal/mol.
